# In a protein production outcome set (Wang et al. 2014):
# Assay: label from the status in PepcDB records
row,Sequence,protein production
1,MTAAENIQEQLYPAPIKTVEEGSPAARAGVRPGDVLLRVNGQPVTDVLAYRHQLERGVVTLEVARPHEAPRVMTGVAGTAQDHHRLMLPQPPSLDETLTFTVEWEDPGLDFEEVLFDGIKKCANKCDFCYVHQMPRGFRKSLYIMDDDYRLSFLYGSFVTLTNLTEGDINRILDENLSPLYVSVHTANQDLRQDMMKWWKLKVKDPQAVQIREMIERLESIDLYTQIVLVPERNDRENLDETVEYLSSRPNVISAAVVPIGLTAHRTNLPDVRTFTPEEAQDTLRRLNVWRRKFLAERGTRFIFPSDELYLLAGEPLPTEEEYEGFPMLENGVGMIRDFLTEALPPLPAALPEPRKVILGTGLLFADSLARAIEPLRQIEGLDIEVRAIENKTFGKVTTVAGLLTGRCFRHAVQPGEADLLIVPPTTLRYGTELMIDDTSLGELRRELKMDVRAGGATLGELARVVLEGAQSSGHQFGMSAHAVKDSGRDDVAPSASRAQGGAAPEESLEEDVAESGMHGRGQA,failed
2,MTAARSAPSPAGAPRPGLRERKKTRTREAIRAATYGLIRQQGYEATTVEQIAERAEVSPSTVLRYFPTREDIVLTDEYDPVMAAELAARPAGEPWSDSLRHVLRKALGLGAGEEAELIRLRTRLLAEVPAVRARMLENMSDTGRMLARAIADRTGLDPDGLEVRIVSMSLVGGLMEVSRYWAEHDHEESLAELVDRALDALENGLPALRESDRESDREGDRGGHREDRREGPRKD,not failed
3,MTAAVARALTLWGLDGASYELAAQRENEVWKVSDGTRHYALRFHRPAYRSEAELTSELLWVEMLGQAGMQVPQPVRQPDGAVLGRIEGRHVSLLDWLGGRPLGKMGQLAPDLDAEAVGRMIGAQMARMHDLSDRWTPPAGFQRPDWRRSGLLGADPLWGRFWEHPDLDPAQRQLMIATRERALACFEDFAPGADQGLIHADLVVENVLVDHDRVAFIDFDDGAWGYRDFDLATVLVKFIGQPDYDRLRAGLCAGYDARRRVEPGTLDFMLLLRALTYPGWIMSRLDEPGGRQRSARMLDTALRLARDFMEERQR,failed
4,MTAFRCLITGLTWLAKPGIRRYVWIPLAVNLVLYGLGLWLGIRYFSAFLNWMLPGWLDFLRWLLWPVFAVGFFTVMYFTFSVLANIIGSPFYGVLAERTAELATGRRIRPAGVAGEVGMWSALRSEFRRLAYLGLRIVPLAALFLVPVVNLVAPVLWMLFNAWFMALEYTAYPLEARGYDFDHQRSLLGRFRLGAATFGGTVLLAQTIPLLNVLAAPAAVIGATLYLLELPVEE,failed
5,MTAHPPRPELQIDIVSDVVCPWCIVGFRQLDQALAATGVLARLRWHPFELNPQMGPEGQNLREHIMEKYGSTPEQSAEARARLTAIGAELGFTFNFTDDSRIVNTFAAHQLLDWAEGQGRQHPLKQALFAAYFTDGRDVSDLSVLLDAVEAAGLDREAAQTALTSGAHQAPVREKQKFWAQHGISGVPSMVFGGKYLLTGAQGADTYAQVIQRCLAEA,not failed
6,MTAIDGQGKDQVIFVTKEEHETPSTVKQEEEDTNEDPKGKGLILPTGEINWDCPCLGGMASGVCGEQFKSAFTCFHFSQEEVKGSDCLEQFISMQECFHQHPELFPQDNNDLQTADPDQEHSSSISDFTTNKESDSLPTETDEIPTQLPVVS,not failed
7,MTAKPTIAFSHLGCEKNRIDTEHMIGLLAEAGYGIDANEALADVVVVNTCSFIQAAREESVRTLVELAESGKKIVIAGCLAQHFQDQLLAELPEAIALVGTGDYHRIVDVLQRTESGERVNAISQEPSFIADENLPRYRTTTSAVAYLRVAEGCDYRCAFCIIPHLRGKQRSRSIESIVAEAKQLAAEGVQELVLISQITTNYGLDRYGKPMLAELLRQLGQVDVPWIRIHYAYPTGLTPEVIAAIRETHNVLPYLDLPLQHSHPEILKAMNRPWQGNVNDRIIEKLKEALPDAVLRTTFIAGFPGETEEHFRHLQQFIQRHEFDHVGVFAFSPEEGTAAIDLPNPVPDDVKEARRDALMATQQPIAERRNRAQIGRLVDVLIEQEHPSTGLKIGRSARFAPEVDGVVYVQGDAALGQLVTVRITDADIYDLHGEVASAADLFQASRQPSLA,failed
8,MTAPAPQTKNAAWGWVLLAGLFEVGFTYALKMSQHDGKYLGLFLLCAIVSFECLAQALKTLPVGLAYAVWTGIGSVGTILVGLVLFGDSLSALRLGLLTVLIGSIAGLKIVDR,failed
9,MTAPEPSRDAKRLVRIDGVTKRFGDAPPALDAVSGAIGGGAITGLVGPDGAGKTTLIRLMTGLMLPDTGTMNVLGFDTRKNAAGIQAAIGYMPQRFGLYEDLSVQENLDLYADLRGLPKSERAGAFDELLTFTDLKRFTTRLAGKLSGGMKQKLGLACALLKKPRLLLLDEPGVGVDPISRRDLWKMVENLTKEGIGVVWSTAYLDEAEACDHVLLLNQGKLLFSGKPDEMTERVSDRVFRVSDVTGRRRQVLAELLQADGVIDGVIQGEAIRLVAANGKTPDIGKAGDGALLSPAPPRFEDAFVDMLGGGPGGRSRLAEAQEPLKAEGDRPVIEAKGLTKRFGDFTAADDISFDIRRGEIFGLLGPNGAGKSTTFKMLCGLLKPTGGEGRVAGFDLRRDAAEARNQLGYMAQKFSLYGDLTVMQNLEFFAGVYGLRGQRRHERIELMTEIFDFGRHAREPAKDLPLGLKQRLALACAVMHEPRALFLDEPTSGVDPITRREFWTHINGLVEKGVTVLVTTHFMDEAEYCDRISLIYRGRSIALGSPDELKARVATKNGPDPTMEDAFIALVQQSEAEDAA,failed
10,MTAPGSVPLTVIGGFWGAGKTTLLNYLLKVQHSERVLVMVNDFGSINIDAELLDQGRHDRPGVVRLQNGCVCCSIGGDLMQAFLQVMSMPDRPDRIIVEASGVADPTRIAQIGRVSGGLSDEGVITLVDASAVRALAADKYVGDIVRQQILSADIVLLNKLDLSSDAEIVETRAWLRDLAPRTRVVSCIHGEVDAVSVLGIGAGKVAPDTAGGPVDVPVPDLRRASTRHADTFHSSTLATEHRFDRRRIEYALDALPQTVLRGKGFVELEGEATPALLQLCGSRWTLDPVSTPAPPAGTHLVFIATGGRGVPRFDAPSHFEQALASRDAASADTSNLEHHHHHH,failed
11,MTAQKMSAQEIIAFIGNAEKKTNVKVTFEGALAAALPENVVKLGNVLFGDWKDIEPLLANLTENKDYVVEQDGRNSAVPLLDK,not failed
12,MTARYIAIDWGSTNLRAWLYQGEECLESRQSEAGVTRLNGRSPAAVLAEITQHWRDGATPVVMAGMVGSNVGWKIAPYLPLPAAFSDIGQQLTAVGDNIWIIPGLCVSRDDNHNVMRGEETQLLGARALAPSSVYVMPGTHCKWVLADRRQIHDFRTVLTGELHHLLLQLSLVGAGLPPQETSAAAFAAGLQRGINNPAVLPQLFEVRASHVLGALPREQVSEFLSGLLIGAEVATLSDTFAGQQAISLVAGSSLTSRYQQAFAAIGREVSAVAGDTAFQTGIRSIAYAVAN,not failed
13,MTASTALTVAIWIGVMLIGGIGSVLRFLVDRSVARRLARTFPYGTLTVNITGAALLGFLAGLALPKDAALLAGTGFVGAYTTFSTWMLETQRLGEDRQMVSALANIVVSVVLGLAAALLGQWIAQI,failed
14,MTATAQQLEYLKNSIKSIQDYPKPGILFRDVTSLLEDPKAYALSIDLLVERYKNAGITKVVGTEARGFLFGAPVALGLGVGFVPVRKPGKLPRETISETYDLEYGTDQLEIHVDAIKPGDKVLVVDDLLATGGTIEATVKLIRRLGGEVADAAFIINLFDLGGEQRLEKQGITSYSLVPFPGH,not failed
15,MTAVFRNTVLVRFKHCDAAGIVFYPRYFEMLNDFIEDWFAQALDWPFDAMHGAGQAGVPTADLHCRFVAPSRLGETLTRELRVVKLGQSSFTVQVRFMGPDSGLRLEVTQRLVCVDTDKIAPRPLPDPVRQAMATYVDETLAATGSPGL,not failed
16,MTAVGADAPKPGAPIKEPRFGFLRRTYAMLVKELIQLKRDRLTFAMIIVIPVMQLLLFGYAINTTPRHLPTAVLLQEDSDLGRSILKALENTAYFKFTREVHSVAEFDDLLLSGRVLFGVEIPRGFERAVRRGEKPAILVAADATDPVAAGSALSALGQIVQTALMHDRVGGDPANPPFEIRAHARYNPAASSRLNIVPGLVGTILTMTMLIFTALSVTREIERGTMENLLSMPITPVEVMLGKILPYVGVGFIQASLILGIGVLLFGVPLRGSLAMLALLSTLFITTNLAIGYTFSTLVQNQLQAMQASMMFFLPSILLSGFMFPFAGMPIWAQYIGECLPLTHYLRIVRAIMLKGSTLENLQYDAVALLTLMLIAMTIAVTRFRRTLD,failed
17,MTAVQLMELDSCTRCGECVKWCPTYAASGQKPGLAPRDKILRWRQYMNKSYGLKAKLFGPTEIPQSELEEFKDDVHGCTTCGICATVCESGINTVELWESLRTNLVKKGIGPFGKQGMFPKLEHHHHHH,failed
18,MTAVRRIRAAALPDLPDASWSNALLVGEELVMSGMTAHPATRQAAERGAALDAHAQALVVLGKVKALLEAAGGHVGNLYKLNVYVTRIADKDAIGRARQEFFAGQGTFPASTLVEVSGLVFPELLVEIDAWARLDIDLANCDEA,not failed
19,MTAWSLLHVGVFASVVMVVGWLWQRRSGNAGPVDVLWAGCLALAAPYCAWMADGALLPRALVAVLGGVWGARLALHLGVRVFGDPHEDGRYRALREHWNGSQGKFLGFFLAQAVVVVLFAVPFLAAASNPHAEWSAWTGIAIVVWLIAVGGEALADRQLSAHKANPANRGKTCRTGLWRYSRHPNYFFEFVHWFAYLALAVGAGPWPVALCALGPVVMFVFLYRFTGIPYTEQQALRSRGEDYAQYQRSTSAFFPLPPSS,failed
20,MTAYWIAHVTIHDMQQYQEYMKLAPAAFQKYGAKFLARGGESVCVEGQAYQRHVIIEFPDLATAQQCYDSEEYKQARLAREGCADVMISFVEGLPTN,failed
21,MTCPEQAIEHDDMNVVVDVEKCKFCMDCIPVCPTGSIDNWRVVDTPYSLEDQYGWMDLPPQEDVAGDEAGLEALDDAMAALLAEAHKGAGGKSRAPATASKPTINLYTLGKPAEARVTGNYRLTAESSDSDVRHIILDFGGQPFPVLEGQSIGIIPPGTDEAGNPHLPRLYSVSSPRDGERPNFNNLSLTVKREPHGICSNHVCDLKPGDTVRVTGPFGATFLMPSDPAAHLLMICTGTGSAPFRAFTMRRQRESPKLRNSLTLVFGARRPQELPYFGPLAKVPEQFMAKHFAFSRQDGAPKHYVQDRLRAEADRVGELLADPLTHVYVCGLKAMEQGVEEAFKDIARAQGIDWTGLRDRMRDEGRYHVETY,failed
22,MTDATVGDEAAAPTVVRLDASCTTQEVEAGEYYHATVNGVVEYGAFVDLSEHVSGLIHESTYSGDPDLAVDDDVIVHLSAVRDNGDLSFEFVDPEEYRTEQRSHAYERTTADAVGSRIGDTVHIEGEVVQIKQTAGPTVFRVRDETSAIPCTAFEDAGVRAHPGVEVGDIVHVSGDADDREGTTQLEVDAFEVLSGGDSADVARRLDAALAEQADPVDVDALVDWPALEQLLPDLRSVARTLRRAVLEGRPIRMRHHADGDGMCASLPVQYALRQFIEDTHQDEDAARHLLKRLPSKAPYYEMEDATRDLNFALEDRARHGQKLPLLLMLDNGSTEEDTPAYKTLDNYDIPIVVVDHHHPDPGAVDPLVDEHVNPYLHGEDYRITTGMLCVELARMIYPGITSDLEHVPAVAGLSDRSKADAMTDYLDLARDAGYDESFLQQMSEALDYEAYMLRYDHGTQVIADILNVDGDAQRHRELVPFLDRLASEAVAEQLDATRSHVEHERVASGANLYRIDVENHAHRFTYPRAGENNRRDPRPQGRGNRGAGDHHRLRPGLRGAPVGRRAPGHPHDGRRTQRRTPWGRRLRRRPPGRRLDPVRSRDA,failed
23,MTDDPTLWAQRLEEAVVGLGANGDRSHDLAHAKRVLRTALALADGVEDQGEGPVDRLVLTAAAYLHDIVAIEKNDPRRSLASRLSAAKAREILGGLDFPAGRQDGVAHAIEAHSFSAGIAPRSLEARILQDADRMESLGAIGVARTFYVAGRLGSALFHDDDPLAFARPLDERAYALDHFFTKLLTLPATMTTAPGRAMAGERAELLRAFAEALAQEVSGAAAPGPRPARPSDGEAPSPLPVWPGSGTRTR,failed
